According to the supplement of paper PMC12458215:
± gives the uncertainty stated by the source.

System: HEK293T
Assay: plasma membrane surface immunostaining intensity (anti-HA, deep receptor scanning) (arbitrary fluorescence units); higher = higher plasma membrane expression

Sequence: MSQVTNTTQEGIYFILTDIPGFEASHIWISIPVCCLYTISIMGNTTILTVIRTEPSVHQRMYLFLSMLALTDLGLTLTTLPTVMQLLWFNVRRISSEACFAQFFFLHGFSFMESSVLLAMSVDCYVAICCPLHYASILTNEVIGRTGLAIICCCVLAVLPSLFLLKRLPFCHSHLLSRSYCLHQDMIRLVCADIRLNSWYGFALALLIIIVDPLLIVISYTLILKNILGTATWAERLRALNNCLSHILAVLVLYIPMVGVSMTHRFAKHASPLVHVIMANIYLLAPPVMNPIIYSVKNKQIQWGMLNFLSLKNMHSR [OR51Q1]
- plasma membrane surface immunostaining intensity (GPCR class: A (Olfactory)): 152 ± 70

Sequence: MARENSTFNSDFILLGIFNHSPTHTFLFFLVLAIFSVAFMGNSVMVLLIYLDTQLHTPMYLLLSQLSLMDLMLICTTVPKMAFNYLSGSKSISMAGCATQIFFYTSLLGSECFLLAVMAYDRYTAICHPLRYTNLMSPKICGLMTAFSWILGSTDGIIDVVATFSFSYCGSREIAHFFCDFPSLLILSCSDTSIFEKILFICCIVMIVFPVAIIIASYARVILAVIHMGSGEGRRKAFTTCSSHLLVVGMYYGAALFMYIRPTSDRSPTQDKMVSVFYTILTPMLNPLIYSLRNKEVTRAFMKILGKGKSGE [OR2M3]
- plasma membrane surface immunostaining intensity (GPCR class: A (Olfactory)): 138 ± 19

Sequence: MQRPGPRLWLVLQVMGSCAAISSMDMERPGDGKCQPIEIPMCKDIGYNMTRMPNLMGHENQREAAIQLHEFAPLVEYGCHGHLRFFLCSLYAPMCTEQVSTPIPACRVMCEQARLKCSPIMEQFNFKWPDSLDCRKLPNKNDPNYLCMEAPNNGSDEPTRGSGLFPPLFRPQRPHSAQEHPLKDGGPGRGGCDNPGKFHHVEKSASCAPLCTPGVDVYWSREDKRFAVVWLAIWAVLCFFSSAFTVLTFLIDPARFRYPERPIIFLSMCYCVYSVGYLIRLFAGAESIACDRDSGQLYVIQEGLESTGCTLVFLVLYYFGMASSLWWVVLTLTWFLAAGKKWGHEAIEANSSYFHLAAWAIPAVKTILILVMRRVAGDELTGVCYVGSMDVNALTGFVLIPLACYLVIGTSFILSGFVALFHIRRVMKTGGENTDKLEKLMVRIGLFSVLYTVPATCVIACYFYERLNMDYWKILAAQHKCKMNNQTKTLDCLMAASIPAVEIFMVKIFMLLVVGITSGMWIWTSKTLQSWQQVCSRRLKKKSRRKPASVITSGGIYKKAQHPQKTHHGKYEIPAQSPTCV [FZD10]
- plasma membrane surface immunostaining intensity (GPCR class: F): 2420 ± 580

Sequence: MVNLRNAVHSFLVHLIGLLVWQSDISVSPVAAIVTDIFNTSDGGRFKFPDGVQNWPALSIVIIIIMTIGGNILVIMAVSMEKKLHNATNYFLMSLAIADMLVGLLVMPLSLLAILYDYVWPLPRYLCPVWISLDVLFSTASIMHLCAISLDRYVAIRNPIEHSRFNSRTKAIMKIAIVWAISIGVSVPIPVIGLRDEEKVFVNNTTCVLNDPNFVLIGSFVAFFIPLTIMVITYCLTIYVLRRQALMLLHGHTEEPPGLSLDFLKCCKRNTAEEENSANPNQDQNARRRKKKERRPRGTMQAINNERKASKVLGIVFFVFLIMWCPFFITNILSVLCEKSCNQKLMEKLLNVFVWIGYVCSGINPLVYTLFNKIYRRAFSNYLRCNYKVEKKPPVRQIPRVAATALSGRELNVNIYRHTNEPVIEKASDNEPGIEMQVENLELPVNPSSVVSERISSV [HTR2C]
- plasma membrane surface immunostaining intensity (GPCR class: A): 974 ± 180

Sequence: MRGFNLLLFWGCCVMHSWEGHIRPTRKPNTKGNNCRDSTLCPAYATCTNTVDSYYCACKQGFLSSNGQNHFKDPGVRCKDIDECSQSPQPCGPNSSCKNLSGRYKCSCLDGFSSPTGNDWVPGKPGNFSCTDINECLTSSVCPEHSDCVNSMGSYSCSCQVGFISRNSTCEDVDECADPRACPEHATCNNTVGNYSCFCNPGFESSSGHLSFQGLKASCEDIDECTEMCPINSTCTNTPGSYFCTCHPGFAPSNGQLNFTDQGVECRDIDECRQDPSTCGPNSICTNALGSYSCGCIAGFHPNPEGSQKDGNFSCQRVLFKCKEDVIPDNKQIQQCQEGTAVKPAYVSFCAQINNIFSVLDKVCENKTTVVSLKNTTESFVPVLKQISTWTKFTKEETSSLATVFLESVESMTLASFWKPSANITPAVRTEYLDIESKVINKECSEENVTLDLVAKGDKMKIGCSTIEESESTETTGVAFVSFVGMESVLNERFFKDHQAPLTTSEIKLKMNSRVVGGIMTGEKKDGFSDPIIYTLENIQPKQKFERPICVSWSTDVKGGRWTSFGCVILEASETYTICSCNQMANLAVIMASGELTMDFSLYIISHVGIIISLVCLVLAIATFLLCRSIRNHNTYLHLHLCVCLLLAKTLFLAGIHKTDNKMGCAIIAGFLHYLFLACFFWMLVEAVILFLMVRNLKVVNYFSSRNIKMLHICAFGYGLPMLVVVISASVQPQGYGMHNRCWLNTETGFIWSFLGPVCTVIVINSLLLTWTLWILRQRLSSVNAEVSTLKDTRLLTFKAFAQLFILGCSWVLGIFQIGPVAGVMAYLFTIINSLQGAFIFLIHCLLNGQVREEYKRWITGKTKPSSQSQTSRILLSSMPSASKTG [ADGRE1]
- plasma membrane surface immunostaining intensity (GPCR class: B): 948 ± 160

Sequence: MRTLLPPALLTCWLLAPVNSIHPECRFHLEIQEEETKCAELLRSQTEKHKACSGVWDNITCWRPANVGETVTVPCPKVFSNFYSKAGNISKNCTSDGWSETFPDFVDACGYSDPEDESKITFYILVKAIYTLGYSVSLMSLATGSIILCLFRKLHCTRNYIHLNLFLSFILRAISVLVKDDVLYSSSGTLHCPDQPSSWVGCKLSLVFLQYCIMANFFWLLVEGLYLHTLLVAMLPPRRCFLAYLLIGWGLPTVCIGAWTAARLYLEDTGCWDTNDHSVPWWVIRIPILISIIVNFVLFISIIRILLQKLTSPDVGGNDQSQYKRLAKSTLLLIPLFGVHYMVFAVFPISISSKYQILFELCLGSFQGLVVAVLYCFLNSEVQCELKRKWRSRCPTPSASRDYRVCGSSFSRNGSEGALQFHRGSRAQSFLQTETSVI [VIPR2]
- plasma membrane surface immunostaining intensity (GPCR class: B): 6470 ± 74

Sequence: MDHCGALFLCLCLLTLQNATTETWEELLSYMENMQVSRGRSSVFSSRQLHQLEQMLLNTSFPGYNLTLQTPTIQSLAFKLSCDFSGLSLTSATLKRVPQAGGQHARGQHAMQFPAELTRDACKTRPRELRLICIYFSNTHFFKDENNSSLLNNYVLGAQLSHGHVNNLRDPVNISFWHNQSLEGYTLTCVFWKEGARKQPWGGWSPEGCRTEQPSHSQVLCRCNHLTYFAVLMQLSPALVPAELLAPLTYISLVGCSISIVASLITVLLHFHFRKQSDSLTRIHMNLHASVLLLNIAFLLSPAFAMSPVPGSACTALAAALHYALLSCLTWMAIEGFNLYLLLGRVYNIYIRRYVFKLGVLGWGAPALLVLLSLSVKSSVYGPCTIPVFDSWENGTGFQNMSICWVRSPVVHSVLVMGYGGLTSLFNLVVLAWALWTLRRLRERADAPSVRACHDTVTVLGLTVLLGTTWALAFFSFGVFLLPQLFLFTILNSLYGFFLFLWFCSQRCRSEAEAKAQIEAFSSSQTTQ [ADGRG5]
- plasma membrane surface immunostaining intensity (GPCR class: B): 512 ± 20

Sequence: MLESHLIIYFLLAVIQFLLGIFTNGIIVVVNGIDLIKHRKMAPLDLLLSCLAVSRIFLQLFIFYVNVIVIFFIEFIMCSANCAILLFINELELWLATWLGVFYCAKVASVRHPLFIWLKMRISKLVPWMILGSLLYVSMICVFHSKYAGFMVPYFLRKFFSQNATIQKEDTLAIQIFSFVAEFSVPLLIFLFAVLLLIFSLGRHTRQMRNTVAGSRVPGRGAPISALLSILSFLILYFSHCMIKVFLSSLKFHIRRFIFLFFILVIGIYPSGHSLILILGNPKLKQNAKKFLLHSKCCQ [TAS2R1]
- plasma membrane surface immunostaining intensity (GPCR class: Taste): 212 ± 85

Sequence: MKSPFYRCQNTTSVEKGNSAVMGGVLFSTGLLGNLLALGLLARSGLGWCSRRPLRPLPSVFYMLVCGLTVTDLLGKCLLSPVVLAAYAQNRSLRVLAPALDNSLCQAFAFFMSFFGLSSTLQLLAMALECWLSLGHPFFYRRHITLRLGALVAPVVSAFSLAFCALPFMGFGKFVQYCPGTWCFIQMVHEEGSLSVLGYSVLYSSLMALLVLATVLCNLGAMRNLYAMHRRLQRHPRSCTRDCAEPRADGREASPQPLEELDHLLLLALMTVLFTMCSLPVIYRAYYGAFKDVKEKNRTSEEAEDLRALRFLSVISIVDPWIFIIFRSPVFRIFFHKIFIRPLRYRSRCSNSTNMESSL [PTGDR]
- plasma membrane surface immunostaining intensity (GPCR class: A): 6000 ± 81

Sequence: MAEMNLTLVTEFLLIAFTEYPEWALPLFLLFLFMYLITVLGNLEMIILILMDHQLHAPMYFLLSHLAFMDVCYSSITVPQMLAVLLEHGAALSYTRCAAQFFLFTFFGSIDCYLLALMAYDRYLAVCQPLLYVTILTQQARLSLVAGAYVAGLISALVRTVSAFTLSFCGTSEIDFIFCDLPPLLKLTCGESYTQEVLIIMFAIFVIPASMVVILVSYLFIIVAIMGIPAGSQAKTFSTCTSHLTAVSLFFGTLIFMYLRGNSDQSSEKNRVVSVLYTEVIPMLNPLIYSLRNKEVKEALRKILNRAKLS [OR9Q1]
- plasma membrane surface immunostaining intensity (GPCR class: A (Olfactory)): 422 ± 160

Sequence: MRMEDEDYNTSISYGDEYPDYLDSIVVLEDLSPLEARVTRIFLVVVYSIVCFLGILGNGLVIIIATFKMKKTVNMVWFLNLAVADFLFNVFLPIHITYAAMDYHWVFGTAMCKISNFLLIHNMFTSVFLLTIISSDRCISVLLPVWSQNHRSVRLAYMACMVIWVLAFFLSSPSLVFRDTANLHGKISCFNNFSLSTPGSSSWPTHSQMDPVGYSRHMVVTVTRFLCGFLVPVLIITACYLTIVCKLQRNRLAKTKKPFKIIVTIIITFFLCWCPYHTLNLLELHHTAMPGSVFSLGLPLATALAIANSCMNPILYVFMGQDFKKFKVALFSRLVNALSEDTGHSSYPSHRSFTKMSSMNERTSMNERETGML [CMKLR1]
- plasma membrane surface immunostaining intensity (GPCR class: A): 747 ± 64

Sequence: MDVLSPGQGNNTTSPPAPFETGGNTTGISDVTVSYQVITSLLLGTLIFCAVLGNACVVAAIALERSLQNVANYLIGSLAVTDLMVSVLVLPMAALYQVLNKWTLGQVTCDLFIALDVLCCTSSILHLCAIALDRYWAITDPIDYVNKRTPRRAAALISLTWLIGFLISIPPMLGWRTPEDRSDPDACTISKDHGYTIYSTFGAFYIPLLLMLVLYGRIFRAARFRIRKTVKKVEKTGADTRHGASPAPQPKKSVNGESGSRNWRLGVESKAGGALCANGAVRQGDDGAALEVIEVHRVGNSKEHLPLPSEAGPTPCAPASFERKNERNAEAKRKMALARERKTVKTLGIIMGTFILCWLPFFIVALVLPFCESSCHMPTLLGAIINWLGYSNSLLNPVIYAYFNKDFQNAFKKIIKCKFCRQ [HTR1A]
- plasma membrane surface immunostaining intensity (GPCR class: A): 5670 ± 440

Sequence: MDFLNSSDQNLTSEELLNRMPSKILVSLTLSGLALMTTTINSLVIAAIIVTRKLHHPANYLICSLAVTDFLVAVLVMPFSIVYIVRESWIMGQVVCDIWLSVDITCCTCSILHLSAIALDRYRAITDAVEYARKRTPKHAGIMITIVWIISVFISMPPLFWRHQGTSRDDECIIKHDHIVSTIYSTFGAFYIPLALILILYYKIYRAAKTLYHKRQASRIAKEEVNGQVLLESGEKSTKSVSTSYVLEKSLSDPSTDFDKIHSTVRSLRSEFKHEKSWRRQKISGTRERKAATTLGLILGAFVICWLPFFVKELVVNVCDKCKISEEMSNFLAWLGYLNSLINPLIYTIFNEDFKKAFQKLVRCRC [HTR1F]
- plasma membrane surface immunostaining intensity (GPCR class: A): 2040 ± 280
